Publication PMC2816676, “DNA Binding of Centromere Protein C (CENPC) Is Stabilized by Single-Stranded RNA”

T1: CENPC full length (Zea mays) (UniProt Q9XHE1)
T1 sequence: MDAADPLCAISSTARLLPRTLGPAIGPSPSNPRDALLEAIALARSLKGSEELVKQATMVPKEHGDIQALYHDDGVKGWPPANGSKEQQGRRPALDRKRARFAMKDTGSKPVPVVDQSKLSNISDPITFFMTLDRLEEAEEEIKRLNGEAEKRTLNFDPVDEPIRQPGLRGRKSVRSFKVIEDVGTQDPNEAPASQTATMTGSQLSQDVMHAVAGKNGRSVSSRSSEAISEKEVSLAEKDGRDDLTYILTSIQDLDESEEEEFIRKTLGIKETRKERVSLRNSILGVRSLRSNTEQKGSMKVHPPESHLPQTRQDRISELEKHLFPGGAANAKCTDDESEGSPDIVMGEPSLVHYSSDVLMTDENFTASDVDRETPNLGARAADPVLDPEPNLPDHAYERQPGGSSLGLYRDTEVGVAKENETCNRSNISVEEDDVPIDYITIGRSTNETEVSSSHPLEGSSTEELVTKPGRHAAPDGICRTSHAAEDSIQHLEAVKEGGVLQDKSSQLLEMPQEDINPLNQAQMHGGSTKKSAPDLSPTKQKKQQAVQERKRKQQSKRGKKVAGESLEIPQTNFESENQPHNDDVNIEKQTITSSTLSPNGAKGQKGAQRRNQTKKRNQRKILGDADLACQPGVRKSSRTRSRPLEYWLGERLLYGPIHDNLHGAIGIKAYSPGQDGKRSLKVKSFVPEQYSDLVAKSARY

T2: CENPC Δexon 9-12 (Zea mays, UniProt Q9XHE1 1-701, del503-624)
T2 sequence: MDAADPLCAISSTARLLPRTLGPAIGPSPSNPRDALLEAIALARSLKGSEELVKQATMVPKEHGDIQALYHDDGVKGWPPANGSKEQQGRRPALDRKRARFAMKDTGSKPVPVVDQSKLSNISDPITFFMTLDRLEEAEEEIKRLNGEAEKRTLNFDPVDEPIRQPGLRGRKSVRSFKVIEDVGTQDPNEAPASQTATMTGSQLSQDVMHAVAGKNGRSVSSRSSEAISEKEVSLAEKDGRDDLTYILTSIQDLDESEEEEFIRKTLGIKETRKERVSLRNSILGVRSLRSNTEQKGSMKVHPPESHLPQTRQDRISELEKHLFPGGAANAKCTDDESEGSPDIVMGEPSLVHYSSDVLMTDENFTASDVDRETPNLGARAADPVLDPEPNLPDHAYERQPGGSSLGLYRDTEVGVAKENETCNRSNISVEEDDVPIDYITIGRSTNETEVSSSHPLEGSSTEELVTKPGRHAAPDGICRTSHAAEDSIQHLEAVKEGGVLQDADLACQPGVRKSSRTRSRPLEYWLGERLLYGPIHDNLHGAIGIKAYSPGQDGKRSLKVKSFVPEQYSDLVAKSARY

T3: CENPC exon 1-5.7 (Zea mays, UniProt Q9XHE1 1-399)
T3 sequence: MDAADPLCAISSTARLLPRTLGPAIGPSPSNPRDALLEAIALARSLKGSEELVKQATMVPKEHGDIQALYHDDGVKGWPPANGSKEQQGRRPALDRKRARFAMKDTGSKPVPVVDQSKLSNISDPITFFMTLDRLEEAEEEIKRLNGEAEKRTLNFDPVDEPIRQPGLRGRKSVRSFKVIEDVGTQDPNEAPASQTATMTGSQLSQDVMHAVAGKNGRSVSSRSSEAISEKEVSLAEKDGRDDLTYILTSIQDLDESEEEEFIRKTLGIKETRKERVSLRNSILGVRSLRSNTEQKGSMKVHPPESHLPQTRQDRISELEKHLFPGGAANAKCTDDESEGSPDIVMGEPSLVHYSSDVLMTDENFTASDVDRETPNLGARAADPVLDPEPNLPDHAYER

T4: CENPC exon 1-8 (Zea mays, UniProt Q9XHE1 1-502)
T4 sequence: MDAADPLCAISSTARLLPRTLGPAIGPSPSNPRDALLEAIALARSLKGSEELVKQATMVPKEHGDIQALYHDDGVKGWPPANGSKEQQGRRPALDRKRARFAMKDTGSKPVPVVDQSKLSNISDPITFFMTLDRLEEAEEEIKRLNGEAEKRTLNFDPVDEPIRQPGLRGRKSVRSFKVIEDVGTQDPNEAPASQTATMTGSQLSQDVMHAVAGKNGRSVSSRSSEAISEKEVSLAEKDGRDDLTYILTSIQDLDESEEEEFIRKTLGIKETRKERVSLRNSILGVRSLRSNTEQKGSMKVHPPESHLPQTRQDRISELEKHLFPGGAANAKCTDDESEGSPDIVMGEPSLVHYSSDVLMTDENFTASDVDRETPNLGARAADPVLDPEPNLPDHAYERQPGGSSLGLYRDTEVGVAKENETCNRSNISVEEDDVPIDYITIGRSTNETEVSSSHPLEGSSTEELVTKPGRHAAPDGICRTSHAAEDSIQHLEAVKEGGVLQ


Key:
[1] = target: T1, CENPC full length (Zea mays); experiment: EMSA; details: 10 mM Tris pH 7.5, 50 mM NaCl, 0.5 mM DTT, 0.5 mM EDTA, 1 mM MgCl2, 4% glycerol, 20 µl, on ice 20 min; 5% PAGE
[2] = target: HIV integrase DNA-binding domain (IntBD) (HIV, UniProt Q9WJL1 220-270); experiment: EMSA; no RNA; 10 mM Tris pH 7.5, 50 mM NaCl, 0.5 mM DTT, 0.5 mM EDTA, 1 mM MgCl2, 4% glycerol, 20 µl, on ice 20 min; 5% PAGE; details: chain copies: 2; blunt
CENPC Δexon 9-12 = target: T2, CENPC Δexon 9-12; experiment: EMSA; 10 mM Tris pH 7.5, 50 mM NaCl, 0.5 mM DTT, 0.5 mM EDTA, 1 mM MgCl2, 4% glycerol, 20 µl, on ice 20 min; 5% PAGE; details: protein: recombinant; tags: His (pET28a); blunt
CENPC exon 1-5.7 = target: T3, CENPC exon 1-5.7; experiment: as above; details: protein: recombinant; tags: His (pET28a); blunt
CENPC exon 1-8 = target: T4, CENPC exon 1-8; experiment: as above; details: protein: recombinant; tags: His (pET28a); blunt

Molecule	binding signal [1] [% bound]	binding result [2]	binding result (CENPC Δexon 9-12)	binding result (CENPC exon 1-5.7)	binding result (CENPC exon 1-8)
CentC 67 bp DSDNA	85.3				
CentC 156 bp DSDNA	95.9				
CentC 44 bp DSDNA (dsDNA) DNA 1: AATGGGTGACGTGCGGCAACGAAATTGCGCGAAACCACCCCAAA DNA 2: TTTGGGGTGGTTTCGCGCAATTTCGTTGCCGCACGTCACCCATT		binds	no binding	no binding	no binding
